Blank lines part the entries; values can stand above or below the binder they belong to. Numbered stars: 1 amine (or outer) side, 2 acyl side, 3 side chain; on linkers, the order of the positions; unused ones are H or OH. * marks the point of attachment. C20 diacid = O=C(O)CCCCCCCCCCCCCCCCCCC(=O)*; C18 diacid = O=C(O)CCCCCCCCCCCCCCCCC(=O)*; γGlu = O=C(O)[C@H](CCC(=O)[*:2])N[*:1]; C14 diacid = O=C(O)CCCCCCCCCCCCC(=O)*
Legend:
[1] = target: T1, human calcitonin receptor (human, UniProt P30988 25-474); test: cell-based or functional assay
T1 sequence (looked up): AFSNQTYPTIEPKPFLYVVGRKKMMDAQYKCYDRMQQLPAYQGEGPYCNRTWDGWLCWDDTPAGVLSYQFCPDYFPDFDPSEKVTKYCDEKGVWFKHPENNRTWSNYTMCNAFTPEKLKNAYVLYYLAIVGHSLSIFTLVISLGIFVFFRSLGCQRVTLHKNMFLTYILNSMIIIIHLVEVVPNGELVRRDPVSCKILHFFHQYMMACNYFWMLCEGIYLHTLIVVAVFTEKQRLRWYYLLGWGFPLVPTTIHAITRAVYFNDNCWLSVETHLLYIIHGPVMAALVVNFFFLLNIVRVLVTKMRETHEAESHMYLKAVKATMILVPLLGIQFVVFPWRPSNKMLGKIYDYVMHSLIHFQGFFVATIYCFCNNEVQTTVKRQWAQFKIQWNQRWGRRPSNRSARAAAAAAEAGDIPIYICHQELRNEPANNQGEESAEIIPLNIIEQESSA

[2] = target: T2, human amylin 3(a) receptor (human calcitonin receptor co-expressed with RAMP-3) (human, UniProt P30988 25-474; O60896 24-148, limits assumed); test: cell-based or functional assay
T2 sequence (looked up) 1: T1 sequence (looked up)
T2 sequence (looked up) 2: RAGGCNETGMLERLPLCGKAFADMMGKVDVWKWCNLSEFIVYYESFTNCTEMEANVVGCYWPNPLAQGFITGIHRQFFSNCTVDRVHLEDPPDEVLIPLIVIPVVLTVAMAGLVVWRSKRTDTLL

B1: [N-terminal(C18 diacid), 5H]mimylin (peptide)
peptide: {C18 diacid}-EASEHSTAALGRLSAELHELATLPRTETGPESP-NH2
SMILES: CC(C)C[C@H](NC(=O)[C@H](C)NC(=O)[C@H](C)NC(=O)[C@@H](NC(=O)[C@H](CO)NC(=O)[C@H](Cc1c[nH]cn1)NC(=O)[C@H](CCC(=O)O)NC(=O)[C@H](CO)NC(=O)[C@H](C)NC(=O)[C@H](CCC(=O)O)NC(=O)CCCCCCCCCCCCCCCCC(=O)O)[C@@H](C)O)C(=O)NCC(=O)N[C@@H](CCCNC(=N)N)C(=O)N[C@@H](CC(C)C)C(=O)N[C@@H](CO)C(=O)N[C@@H](C)C(=O)N[C@@H](CCC(=O)O)C(=O)N[C@@H](CC(C)C)C(=O)N[C@@H](Cc1c[nH]cn1)C(=O)N[C@@H](CCC(=O)O)C(=O)N[C@@H](CC(C)C)C(=O)N[C@@H](C)C(=O)N[C@H](C(=O)N[C@@H](CC(C)C)C(=O)N1CCC[C@H]1C(=O)N[C@@H](CCCNC(=N)N)C(=O)N[C@H](C(=O)N[C@@H](CCC(=O)O)C(=O)N[C@H](C(=O)NCC(=O)N1CCC[C@H]1C(=O)N[C@@H](CCC(=O)O)C(=O)N[C@@H](CO)C(=O)N1CCC[C@H]1C(N)=O)[C@@H](C)O)[C@@H](C)O)[C@@H](C)O
hCTR funct. EC50 (pM) [1]: 6 pM | hAmylin-R funct. EC50 (pM) [2]: 8 pM

B2: [N-terminal(C18 diacid), 23Y]mimylin (peptide)
peptide: {C18 diacid}-EASELSTAALGRLSAELHELATYPRTETGPESP-NH2
SMILES: CC(C)C[C@H](NC(=O)[C@H](C)NC(=O)[C@H](C)NC(=O)[C@@H](NC(=O)[C@H](CO)NC(=O)[C@H](CC(C)C)NC(=O)[C@H](CCC(=O)O)NC(=O)[C@H](CO)NC(=O)[C@H](C)NC(=O)[C@H](CCC(=O)O)NC(=O)CCCCCCCCCCCCCCCCC(=O)O)[C@@H](C)O)C(=O)NCC(=O)N[C@@H](CCCNC(=N)N)C(=O)N[C@@H](CC(C)C)C(=O)N[C@@H](CO)C(=O)N[C@@H](C)C(=O)N[C@@H](CCC(=O)O)C(=O)N[C@@H](CC(C)C)C(=O)N[C@@H](Cc1c[nH]cn1)C(=O)N[C@@H](CCC(=O)O)C(=O)N[C@@H](CC(C)C)C(=O)N[C@@H](C)C(=O)N[C@H](C(=O)N[C@@H](Cc1ccc(O)cc1)C(=O)N1CCC[C@H]1C(=O)N[C@@H](CCCNC(=N)N)C(=O)N[C@H](C(=O)N[C@@H](CCC(=O)O)C(=O)N[C@H](C(=O)NCC(=O)N1CCC[C@H]1C(=O)N[C@@H](CCC(=O)O)C(=O)N[C@@H](CO)C(=O)N1CCC[C@H]1C(N)=O)[C@@H](C)O)[C@@H](C)O)[C@@H](C)O
hCTR funct. EC50 (pM) [1]: 7 pM | hAmylin-R funct. EC50 (pM) [2]: 11 pM

B3: [N-terminal(C18 diacid), 6H]mimylin (peptide)
peptide: {C18 diacid}-EASELHTAALGRLSAELHELATLPRTETGPESP-NH2
SMILES: CC(C)C[C@H](NC(=O)[C@H](C)NC(=O)[C@H](C)NC(=O)[C@@H](NC(=O)[C@H](Cc1c[nH]cn1)NC(=O)[C@H](CC(C)C)NC(=O)[C@H](CCC(=O)O)NC(=O)[C@H](CO)NC(=O)[C@H](C)NC(=O)[C@H](CCC(=O)O)NC(=O)CCCCCCCCCCCCCCCCC(=O)O)[C@@H](C)O)C(=O)NCC(=O)N[C@@H](CCCNC(=N)N)C(=O)N[C@@H](CC(C)C)C(=O)N[C@@H](CO)C(=O)N[C@@H](C)C(=O)N[C@@H](CCC(=O)O)C(=O)N[C@@H](CC(C)C)C(=O)N[C@@H](Cc1c[nH]cn1)C(=O)N[C@@H](CCC(=O)O)C(=O)N[C@@H](CC(C)C)C(=O)N[C@@H](C)C(=O)N[C@H](C(=O)N[C@@H](CC(C)C)C(=O)N1CCC[C@H]1C(=O)N[C@@H](CCCNC(=N)N)C(=O)N[C@H](C(=O)N[C@@H](CCC(=O)O)C(=O)N[C@H](C(=O)NCC(=O)N1CCC[C@H]1C(=O)N[C@@H](CCC(=O)O)C(=O)N[C@@H](CO)C(=O)N1CCC[C@H]1C(N)=O)[C@@H](C)O)[C@@H](C)O)[C@@H](C)O
hCTR funct. EC50 (pM) [1]: 9 pM | hAmylin-R funct. EC50 (pM) [2]: 15 pM

Binder: {C14 diacid-γGlu}-ASELSTAALGRLSAELHELATLPRTETGPESP-NH2 [[N-terminal(C14 diacid-gGlu), des1]mimylin]
hCTR funct. EC50 (pM) [1]: 3 pM | hAmylin-R funct. EC50 (pM) [2]: 8 pM

Continued, values first:

hCTR funct. EC50 (pM) [1]: 17 pM | hAmylin-R funct. EC50 (pM) [2]: 20 pM
B4: [N-terminal(C18 diacid), 32H]mimylin (peptide)
peptide: {C18 diacid}-EASELSTAALGRLSAELHELATLPRTETGPEHP-NH2
SMILES: CC(C)C[C@H](NC(=O)[C@H](C)NC(=O)[C@H](C)NC(=O)[C@@H](NC(=O)[C@H](CO)NC(=O)[C@H](CC(C)C)NC(=O)[C@H](CCC(=O)O)NC(=O)[C@H](CO)NC(=O)[C@H](C)NC(=O)[C@H](CCC(=O)O)NC(=O)CCCCCCCCCCCCCCCCC(=O)O)[C@@H](C)O)C(=O)NCC(=O)N[C@@H](CCCNC(=N)N)C(=O)N[C@@H](CC(C)C)C(=O)N[C@@H](CO)C(=O)N[C@@H](C)C(=O)N[C@@H](CCC(=O)O)C(=O)N[C@@H](CC(C)C)C(=O)N[C@@H](Cc1c[nH]cn1)C(=O)N[C@@H](CCC(=O)O)C(=O)N[C@@H](CC(C)C)C(=O)N[C@@H](C)C(=O)N[C@H](C(=O)N[C@@H](CC(C)C)C(=O)N1CCC[C@H]1C(=O)N[C@@H](CCCNC(=N)N)C(=O)N[C@H](C(=O)N[C@@H](CCC(=O)O)C(=O)N[C@H](C(=O)NCC(=O)N1CCC[C@H]1C(=O)N[C@@H](CCC(=O)O)C(=O)N[C@@H](Cc1c[nH]cn1)C(=O)N1CCC[C@H]1C(N)=O)[C@@H](C)O)[C@@H](C)O)[C@@H](C)O

hCTR funct. EC50 (pM) [1]: 9 pM | hAmylin-R funct. EC50 (pM) [2]: 11 pM
Binder: {C20 diacid}-EASELSTAALGRLSAELHELATLPRTETGSGSP-NH2 [[N-terminal(C20 diacid), 30S, 31G]mimylin]

hCTR funct. EC50 (pM) [1]: 6 pM | hAmylin-R funct. EC50 (pM) [2]: 9 pM
Binder: {C18 diacid}-EASELSTAALGRLSAELHELATLPRTETGSGSP-NH2 [[N-terminal(C18 diacid), 30S, 31G]mimylin]

hCTR funct. EC50 (pM) [1]: 4 pM | hAmylin-R funct. EC50 (pM) [2]: 9 pM
B5: [N-terminal(C18 diacid-gGlu), des1, 30S]mimylin (peptide)
peptide: {C18 diacid-γGlu}-ASELSTAALGRLSAELHELATLPRTETGSESP-NH2
SMILES: CC(C)C[C@H](NC(=O)[C@H](C)NC(=O)[C@H](C)NC(=O)[C@@H](NC(=O)[C@H](CO)NC(=O)[C@H](CC(C)C)NC(=O)[C@H](CCC(=O)O)NC(=O)[C@H](CO)NC(=O)[C@H](C)NC(=O)CC[C@H](NC(=O)CCCCCCCCCCCCCCCCC(=O)O)C(=O)O)[C@@H](C)O)C(=O)NCC(=O)N[C@@H](CCCNC(=N)N)C(=O)N[C@@H](CC(C)C)C(=O)N[C@@H](CO)C(=O)N[C@@H](C)C(=O)N[C@@H](CCC(=O)O)C(=O)N[C@@H](CC(C)C)C(=O)N[C@@H](Cc1c[nH]cn1)C(=O)N[C@@H](CCC(=O)O)C(=O)N[C@@H](CC(C)C)C(=O)N[C@@H](C)C(=O)N[C@H](C(=O)N[C@@H](CC(C)C)C(=O)N1CCC[C@H]1C(=O)N[C@@H](CCCNC(=N)N)C(=O)N[C@H](C(=O)N[C@@H](CCC(=O)O)C(=O)N[C@H](C(=O)NCC(=O)N[C@@H](CO)C(=O)N[C@@H](CCC(=O)O)C(=O)N[C@@H](CO)C(=O)N1CCC[C@H]1C(N)=O)[C@@H](C)O)[C@@H](C)O)[C@@H](C)O

— US20160272683A1 (Novo Nordisk, published 2016)
